Test results taken from patent US20120195897A1 (US Dept. of Health and Human Services, published 2012).

Target: T1, IGF ligand 2 (IGF-2) (human, UniProt P01344 25-91)
T1 construct: Used as antigen in ELISA and as stimulus (10 nM) on MCF-7 cells; also called insulin-like growth factor 2
Experiment: ELISA

T1 sequence (P01344 25-91 limits assumed): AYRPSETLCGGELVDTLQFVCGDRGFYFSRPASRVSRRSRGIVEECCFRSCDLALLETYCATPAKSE

B1: m636 (VHH)
VHH: QVQLVQSGGGLVQPGGSLRLSCAASYYSLQHDNFPYTFMSWVRQAPGQRLEWVSGISGSGGSTYYADSVKGRFTISRDNSKNTLYLQMNTLRAEDTAMYYCARIRWLQDLDYWGQGTLVTVSS
notes: Human VH single domain antibody (dAb) selected from phage library m91; also called dAb m636; IGF-2 dAb
B1: binds.
